Reference: the nanobody polyreactivity screen of Harvey et al. (2022)

Assay: yeast display, Sf9 membrane polyspecificity reagent, FACS + sequencing; frameworks hold sequencing errors
Summary of the method: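 Nanobodies came from a synthetic yeast display library in Saccharomyces cerevisiae BJ5465, induced with galactose for 36–48 hours and stained for 1 hour at 4 °C with 10% biotinylated, detergent-solubilized Sf9 membrane reagent. Cells were enriched on streptavidin microbeads and then FACS-sorted, with low and high (top ~1%) gates set on anti-HA fluorescence for expression and streptavidin fluorescence for reagent binding. Each polyreactivity label reflects the gate a clone came from. Genes were amplified by colony PCR, sequenced by MiSeq 2 × 250 and filtered by CDR length.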

| Sequence | polyreactivity (PSR sort gate) |
| --- | --- |
| QVQLVESGGGLVQAGGSLRLSCAASGLIFWYYAMGWYRQAPGKERELVATISWSGGSTYYADSVKGRFTISRDNAKNTVYLQMNSLKPEDTAVYYCAAVGFRAYVARGYWYYYWGQGTQVTVSS | high polyreactivity |
| QVQLVESGGGLVQAGGSLRLSCAASGLIFWYYTMGWYRQAPGKESELVAAITIGGSTYYADSVKGRFTISRDNAKNTVYLQMNSLKPEDTAVYYCNTRRGRSPGGRYEYDYWGQGTQVTVSS | low polyreactivity |
| QVQLVESGGGLVQAGGSLRLSCAASGLIFYDNMGWYRPAPGKERELVAAISSSGGSTSYADSVKGRFTISRDNAKNTVYLQMNSLKPEDTAVYYCAARLVYEWRRLDYFIAWDYWGQGTQVTVSS | low polyreactivity |
| QVQLVESGGGLVQAGGSLRLSCAASGLIFYDNMGWYRQAPGKERELLAAISSSGGSTSYADSVKGRFTISRDNAKITVSLQMNCLKPEDTGVYYCAADSYPAYLGFVGFDYWGQGTQVTVSS | low polyreactivity |
| QVQLVESGGGLVQAGGSLRLSCAASGLIFYDNMGWYRQAPGKERELVAAISSSGGSTSYADSVKGRFTISRDNAKNTVYLQMNSLKPEDTAVYYCAADSYPAYLGFVGFDYWGQGTQVNVSS | low polyreactivity |
| QVQLVESGGGLVQAGGSLRLSCAASGLIFYGNAMGWYRQAPGKERELVADITGSSVRTYYADSVKGRFTISRDNAKNTDYLQMNSLKPEDTAVYYCAATYGYLYTGLSRYDYWGQGTQVTVSS | low polyreactivity |
| QVQLVESGGGLVQAGGSLRLSCAASGLIFYGYAMGWYRQAPGKERELVAAISSGGSTNYADSVKGRFTISRDNAKNTVYLQMNSLKPEDTAVYYCAAKPIFYRTILYYYWGQGTQVTVSS | high polyreactivity |
| QVQLVESGGGLVQAGGSLRLSCAASGLIFYKYAKGWYRQAPGKERELVAAISRGDNTYYADSVKGRFTISRDNAKNTVYLQMNSLKPEDTAVYYCAAYRWIYQSQYQGYWLDYWGQGTQVTVSS | high polyreactivity |
| QVQLVESGGGLVQAGGSLRLSCAASGLIFYKYAMGWYRQAPGKERELVAAIRWSGGSTYYADSVKGRFTISRDNAKNTVYLQMNSLKPEDTAVYYCAALSWNHQYEYWGQGTQVTVSS | high polyreactivity |
| QVQLVESGGGLVQAGGSLRLSCAASGLIFYLYAMGWYRQQPGKERELVARMSRGGSTNYADSVKGRFTISRDNAKNTVYLQLNSLKPEDTAVDYCAADWFVSLGEMYYWGQGTQGTVSS | low polyreactivity |
| QVQLVESGGGLVQAGGSLRLSCAASGLIFYPYAMGWYRQAPGKERELVAGISSSGDSTYYADSVKGRFTISRDNAKNTVYLEMNSLKPEDTAVYYCNADGWYFEYWGQGTHVTVSS | low polyreactivity |
| QVQLVESGGGLVQAGGSLRLSCAASGLIFYRYAMGWYRQAPGKERELVAAISSGGSTYYADSVKGRFTISRDNAKNTVYLQMNSLKPEDTAVYYCADRTRVSPQIHIYRAYGYWGQGTQVTVSS | high polyreactivity |
| QVQLVESGGGLVQAGGSLRLSCAASGLIFYRYAMGWYRQAPGKERELVAVISWIGCNTYYADSVKGRFTISRDNAKNTVYLQMNSLKPEDTAVYYCAVATGPVSYRRYYWGQGTQVTVSS | high polyreactivity |
| QVQLVESGGGLVQAGGSLRLSCAASGLIFYSNAMGWYRQAPGKDRELVAAITTSGSSTYYADSVKGRFTISRDNAKNTVYIPMNSLKPEDTAVYYCATEWRSNYWGQGTQVTVSS | low polyreactivity |
| QVQLVESGGGLVQAGGSLRLSCAASGLIFYTYAMGWYRQAPGIERELVATISKRDGGTYYADSVKGRFTISRDNAKNTVYLQMNSLKPEDTAVYYCDAERSYSYWAYDYWGQGTQVTVSS | high polyreactivity |
| QVQLVESGGGLVQAGGSLRLSCAASGLIFYVYAMGWYRQAPGKERELVAAISFRGTSTYADSVKGRFTISRDNAKNTVYFQMNSLKPEDTAVYYCAVTGFDVLWPSLGGELDYWGQGTQVTVSS | low polyreactivity |
| QVQLVESGGGLVQAGGSLRLSCAASGLIFYYNAMGWYRQAPGKERELVAAISSDGTTDYADSVKGRFTISRDNAKNTVYLQMNSLKPEDTAVYYCNADKAVKLSGYGRADYDYWGQGTQVTVSS | low polyreactivity |
| QVQLVESGGGLVQAGGSLRLSCAASGLIFYYYAMGWYRQAPGKERELVAAITGSGGSTYYADSVKGRFTISRDNAKNTVYLQMNSLKPEDTAVYYCAADGIYTYEYWGQGTQVTVSS | low polyreactivity |
| QVQLVESGGGLVQAGGSLRLSCAASGLIFYYYAMGWYRQAPGKERELVAAITTGGGTYYADSVKGRFTISRDNAKNTVYLQMNILKPEATAVFYCAVYYRSYWGYEYWGQGTQVTVSS | high polyreactivity |
| QVQLVESGGGLVQAGGSLRLSCAASGLIIKWYAMGWYRQAPGKERELVAAITRTGGSTYYADSVKGRFTISRDNAKNTVYLQMNSLKPEDTAVYYCADRPVYFRYIAYYDWTPSFDFWGQGTQVTVSS | low polyreactivity |
| QVQLVESGGGLVQAGGSLRLSCAASGLILANYAMGWYRQAPGKDRELVAAISSSGGSTYYADSVKGRFTISRDNAKNTVYLQMNSLKPEDTAVYYCAAYPLYRRRWTGDYWGQGTQVTVSS | high polyreactivity |
| QVQLVESGGGLVQAGGSLRLSCAASGLILGYYAMGWYRQAPGKERELVATIRRGASTYYADSVKGRFTISRDNAKNTVYLQMNSLKPEDTAVYYCAADTERSLAGGMYYWGEGTQVTVSS | low polyreactivity |

| Sequence | polyreactivity (PSR sort gate) |
| --- | --- |
| QVQLVESGGGLVQAGGSLRLSCAASGLILNYYTMGSYRQAPGKERELVATISSSTGSTYYADSVKGRFTISRDNAKNTVYLQMNSLKPEDTAVYYCAADHWSYWQIYEYWGQGTQVTVSS | low polyreactivity |
| QVQLVESGGGLVQAGGSLRLSCAASGLILVGNTMGWYRQAPGKERELVATITSGGRTYYADSVKGRFTISRDNAKNTVYLQMNSLKPEDTAVYYCAKRAFSYVGGQQDRKENYYYWGQGTQVTVSS | high polyreactivity |
| QVQLVESGGGLVQAGGSLRLSCAASGLILVPNTMGWYRQAPGKARELVAAISYSGGGTYYADSVKGRFTISRDNAKNTVYLQMNSLKPEDTAVYYCAAYDKRESAPYGYWGQGTQVTVSS | low polyreactivity |
| QVQLVESGGGLVQAGGSLRLSCAASGLILYYYTMGWYRQAPGKERELVAAINSGGNTYYADSVKGRFTISRDNAKNTVYLQMNSLKPEDTAVYYCNAYRVRYKRSYDYWGQGTQVTVSS | high polyreactivity |
| QVQLVESGGGLVQAGGSLRLSCAASGLIRDGKVMGWYIQAPGKERELVAAINTSGGSTYYADSVKGRFTISRDNAKNTVYLQMNSLKPEDTAVYYCAARYPSDYDYWGQGTQVTVSS | low polyreactivity |
| QVQLVESGGGLVQAGGSLRLSCAASGLIVGGYTMGWYRQAPGKERDLVAAIDSADSTYYADSVKGRFTISRDNAKNTVYLQMNSLKPEDTAVYYCATYWFYSGPAFSLRETGGVNYWGQGTQVTVSS | low polyreactivity |
| QVQLVESGGGLVQAGGSLRLSCAASGLIYVTNAMGCYRQAPGKERELVAAITSVGSTNYADSVKGRFTISRDNAKNTVYLQMNSLKPEDTAVYYCAAGVIADQSIGPTWSGSEGDYWGQGTQVTVSS | low polyreactivity |
| QVQLVESGGGLVQAGGSLRLSCAASGLNFDKNAMGWYRQAPGNERELLAAITRSSGTTYYADSVKGRFTISRDNAKNTVYLQMNSLKPEDTAVYYCAARFIWGYWGVGYYSWGQGTQVTVSS | low polyreactivity |
| QVQLVESGGGLVQAGGSLRLSCAASGLNFGSNAMGWYRQAPGKERELVAAITWSGGSTYYADSVKGRFTISRDNAKNTVYLQMNSLKPEDTAVYYCAAKRWYRYYWGQGTQVTVSS | high polyreactivity |
| QVQLVESGGGLVQAGGSLRLSCAASGLNFSEYAMGWYRQAPGKERELVAAIRSDGGSTYYADSVKGRFTISRDNAKNTVYLQMNSLKPEVTAVYYCNAPYRRSAKFRRYVYDYWGQGTQVTVSS | high polyreactivity |
| QVQLVESGGGLVQAGGSLRLSCAASGLNFYRYPMGWNRQAPGKERELVAAITRNGGSTYYADSVKGRFTISRDNANNTVYLQMNSLKPEDIAVYYCAADLYSAVYFSRWSDYWGQGTQVTVSS | high polyreactivity |
| QVQLVESGGGLVQAGGSLRLSCAASGLNFYYYAMGWYRQAPGKERELVATISSRGGSTNYADSVKGRFTISRDNAKNTVYLQMNSLKPEDTAVYYCAADRRARVWTYRSYDYWGQGTQVTVSS | high polyreactivity |
| QVQLVESGGGLVQAGGSLRLSCAASGLNIRYYAMGWYRQAPGKERELVAAISYNGGSTYYADSVKGRFTISRDNAKNTVYLQMNSLKPEDTAVYYCAARLYGRYGYWGQGTQVTVSS | high polyreactivity |
| QVQLVESGGGLVQAGGSLRLSCAASGLSLGVYTLGWYRQAPGKEREFVASINYGGGSTYYADSVKGRFTISRDNAKNTVYLQMNSLKPEDTAVYYCNARSRWGGTRLYSYDYWGQGTQVTVSS | low polyreactivity |
| QVQLVESGGGLVQAGGSLRLSCAASGLTFAENAMGWYRQAPGKERELVAAISASGGSTYYADSVKGRFTISRDNAKNTVFLQMNSLKPEDTAVYYCATRVAFLWPRRDYDYWGQGTQVTVSS | low polyreactivity |
| QVQLVESGGGLVQAGGSLRLSCAASGLTFAINTMGWYRQAPGKERELVAAITGSGGSTYYADSVKGRFTISRDNAKNTVYLQMNSLKPEDTAVYYCAAELLYVQGYAMDYWGQGTQVTVSS | low polyreactivity |
| QVQLVESGGGLVQAGGSLRLSCAASGLTFAQYAMGWYRQAPGKERELVAAITSRGTNTYYADSVKGRFTISRDNAKNTVYLQMNSLKPEDTAVYYCNTYRARLGTTFIDYDYWGQGTQVTVSS | high polyreactivity |
| QVQLVESGGGLVQAGGSLRLSCAASGLTFASNAMGWYRQAPGKERELVAAISWSDGSTYYADSVKGRFTISRDNAKNTVYLQMNSLKPEDTAVYYCAADPPGFRTYRVGYWGQGTQVTVSW | low polyreactivity |
| QVQLVESGGGLVQAGGSLRLSCAASGLTFCRYVMGWYRQAPVKERELVAAITSGDSTNYADSVKGRFTISRDNAKNTVYLQTYSLITEVTAGYYCAADYWYRYYIGRNPWECITFDYWGQGTQVTVSS | low polyreactivity |
| QVQLVESGGGLVQAGGSLRLSCAASGLTFDAYAMGWSRPAPGKERELVAAISWSGGSTYYAASVKGRFTISRDNAKNTVYLQMNSLKPEDTAVYYCNARYAQFRYWGQGTQVTVSS | high polyreactivity |
| QVQLVESGGGLVQAGGSLRLSCAASGLTFDGYAKGWYRPAPGKERELVAAISSSSGRTYYADSVKGRFTISRDNAKNTVYLQMNSLKPEDTEVYYCNAVTTGVYKDYYYWGQGTQVTVSS | high polyreactivity |
